Data published in the supplement of paper PMC10724198.
± gives the standard deviation of the averaged measurements.

system: Saccharomyces cerevisiae; test: protein stability index of tFT-peptide fusion (C-terminal peptide) (PSI (0-1 scale)); higher = more stable (slower turnover); conditions: genetic background: wild type; temperature: 30 C
Method: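 Multiplexed protein stability (MPS) profiling in S. cerevisiae. Random 12-aa peptides (tFT-X12 library) are fused to the C-terminus of a sfGFP-mCherry tandem fluorescent timer, after mCherry and a GGGS linker. Cells are FACS-sorted into 8 mCherry/sfGFP bins and deep-sequenced. The protein stability index (PSI) is the read-weighted bin average, scaled from 0 (unstable) to 1 (stable). Only peptides with >10 reads are reported; cells were grown at 30 °C in SC-His with glucose.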
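Further: PSI is a weighted mean of sequencing reads over stability bins, variants kept only with over 10 reads, mCherry proximal and sfGFP distal, peptide attached via GGGS linker.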

Row | Sequence | protein stability index
1 | EVVRWGCVDLWI | 0.717 ± 0.051
2 | EWACGRAGLKVV | 0.491 ± 0.018
3 | EYCIYYTQFGSF | 0.65 ± 0.1
4 | EYEDNRLDQHKV | 0.725 ± 0.04
5 | FAFVCLASILGS | 0.5313 ± 0.0017
6 | FAPAWQTRLGCP | 0.7514 ± 0.0026
7 | FAPPASPPARPP | 0.672 ± 0.016
8 | FAVLGGGVGGGW | 0.7077 ± 0.0032
9 | FCALWASFFGVS | 0.715 ± 0.048
10 | FCCFGGSFFSLR | 0.715 ± 0.02
11 | FCCSYLSRGDFL | 0.702 ± 0.023
12 | FCDFSPPARSFP | 0.76 ± 0.072
13 | FCGDFGGAYGLW | 0.706 ± 0.047
14 | FCGFTSLCVGDL | 0.731 ± 0.039
15 | FCLGMRKHSSPL | 0.731 ± 0.02
16 | FCVFFSGLCCWV | 0.55 ± 0.022
17 | FCWCARPLSWYN | 0.615 ± 0.027
18 | FDACPAPFGLVV | 0.67033 ± 0.0004
19 | FDRAVRPSCLLL | 0.6892 ± 0.0062
20 | FEDWMQGLGKWV | 0.792 ± 0.054
21 | FELTLLSPVCFS | 0.579 ± 0.0089
22 | FESTCSGLLYNS | 0.694 ± 0.039
23 | FFAGASRFSSWS | 0.752 ± 0.029
24 | FFCLWFLSFLRF | 0.572 ± 0.01
25 | FFFLPILKSPSR | 0.714 ± 0.058

Row | Sequence | protein stability index
26 | FFGNGSGPWVLV | 0.6597 ± 0.0018
27 | FFGWYFCFSGVS | 0.598 ± 0.023
28 | FFIGFGGVAGGG | 0.695 ± 0.01
29 | FFLGGGVGLVLV | 0.528 ± 0.053
30 | FFLPLAYSSGSN | 0.659 ± 0.043
31 | FFLPSLFSVLSF | 0.53 ± 0.04
32 | FFLRLCTPPYFH | 0.651 ± 0.0097
33 | FFPITAWSGWDG | 0.669 ± 0.093
34 | FFPPAPLTSLLP | 0.697 ± 0.057
35 | FFPPFLFSLFRT | 0.5621 ± 0.0007
36 | FFQSSLLFCPWR | 0.712 ± 0.011
37 | FFRWDSKHDILV | 0.732 ± 0.064
38 | FFRYWLRWGWGV | 0.695 ± 0.039
39 | FFSFVVPCFFFC | 0.513 ± 0.022
40 | FFSSSLMRLGCF | 0.6343 ± 0.00098
41 | FFSWFGCSCYAR | 0.779 ± 0.023
42 | FFTVRLRGGRDC | 0.649 ± 0.024
43 | FFVGAGATEGLG | 0.735 ± 0.021
44 | FFVGAGVTEGLG | 0.692 ± 0.033
45 | FGFGYAVSFLVG | 0.6 ± 0.081
46 | FGPDFCVRSHLS | 0.719 ± 0.03
47 | FGRGLCPHRLWI | 0.74 ± 0.039
48 | FGRSHPFWVVDV | 0.697 ± 0.025
49 | FGSRTFVTIAAG | 0.57 ± 0.056
50 | FGVSLWPGFLYL | 0.587 ± 0.0065

Row | Sequence | protein stability index
51 | FGVTLGYFSSVE | 0.656 ± 0.017
52 | FGVVLAGAGWGG | 0.675 ± 0.095
53 | FGVVLVGAGWGG | 0.67 ± 0.035
54 | FGWVGYGCGVWW | 0.741 ± 0.12
55 | FHFLNLLIPFPR | 0.737 ± 0.061
56 | FHVVPLTSPPPV | 0.755 ± 0.03
57 | FHYSRSCVLEQL | 0.698 ± 0.074
58 | FICAGPLGVCSC | 0.498 ± 0.011
59 | FICGFRYHTVYR | 0.652 ± 0.043
60 | FIKRINSYTGWI | 0.663 ± 0.062
61 | FIQFGYVSSVIQ | 0.722 ± 0.031
62 | FISKHHPLVPPS | 0.719 ± 0.041
63 | FKQLKKKKKNRR | 0.741 ± 0.091
64 | FLARPIACPRRV | 0.701 ± 0.008
65 | FLCNSRSICGDG | 0.6774 ± 0.0033
66 | FLCRLILFSTPP | 0.602 ± 0.021
67 | FLFASYFLENQR | 0.766 ± 0.13
68 | FLFRLWGLLAEG | 0.583 ± 0.082
69 | FLGCFIPLPCTP | 0.645 ± 0.012
70 | FLGFPVVGVFGS | 0.735 ± 0.031
71 | FLGRFLTGALWV | 0.758 ± 0.12
72 | FLLCFLRIPSCP | 0.5218 ± 0.0042
73 | FLLCISGFSSFL | 0.592 ± 0.0077
74 | FLLDRSSADHSL | 0.684 ± 0.1
75 | FLLFSSFYFCFP | 0.497 ± 0.062

Row | Sequence | protein stability index
76 | FLLPPAPRPAPP | 0.76 ± 0.086
77 | FLPFFFCLPSSL | 0.628 ± 0.014
78 | FLPRLSASSSLC | 0.728 ± 0.015
79 | FLQRSLTNMNSL | 0.671 ± 0.00095
80 | FLRGLCGKMSKG | 0.673 ± 0.0081
81 | FLRKHVLRLRPP | 0.594 ± 0.03
82 | FLSCLLERSWSL | 0.79 ± 0.044
83 | FLSLFCFFLPFF | 0.646 ± 0.02
84 | FLSPSLLSLSSP | 0.681 ± 0.025
85 | FLSSWFCYSSDL | 0.735 ± 0.07
86 | FLSWGSGVFGLL | 0.671 ± 0.056
87 | FLSWTAYRPSST | 0.682 ± 0.0075
88 | FLVWGLGWLCCV | 0.594 ± 0.025
89 | FNISVGPATRRV | 0.665 ± 0.045
90 | FNPPPLLLPPPP | 0.639 ± 0.013
91 | FPILLASRPSSP | 0.662 ± 0.046
92 | FPISPSQSQSLP | 0.724 ± 0.076
93 | FPIWYPSSSFPR | 0.711 ± 0.013
94 | FPLPHPCPPPPP | 0.694 ± 0.017
95 | FPLSPPAPPLTP | 0.702 ± 0.013
96 | FPPAHPVHFSPP | 0.717 ± 0.047
97 | FPPCCSSFFGFF | 0.752 ± 0.024
98 | FPPCSFLARPFL | 0.669 ± 0.019
